# According to paper PMC11272584 (Nature Metabolism, 2024):
# Key:
# [1] = biological target: T1, GIPR A150T (Homo sapiens, UniProt P48546, A150T); assay: cAMP accumulation; assay type: cell-based
# T1 construct: host or cells: HEK293
# T1 sequence (P48546 22-466 A150T): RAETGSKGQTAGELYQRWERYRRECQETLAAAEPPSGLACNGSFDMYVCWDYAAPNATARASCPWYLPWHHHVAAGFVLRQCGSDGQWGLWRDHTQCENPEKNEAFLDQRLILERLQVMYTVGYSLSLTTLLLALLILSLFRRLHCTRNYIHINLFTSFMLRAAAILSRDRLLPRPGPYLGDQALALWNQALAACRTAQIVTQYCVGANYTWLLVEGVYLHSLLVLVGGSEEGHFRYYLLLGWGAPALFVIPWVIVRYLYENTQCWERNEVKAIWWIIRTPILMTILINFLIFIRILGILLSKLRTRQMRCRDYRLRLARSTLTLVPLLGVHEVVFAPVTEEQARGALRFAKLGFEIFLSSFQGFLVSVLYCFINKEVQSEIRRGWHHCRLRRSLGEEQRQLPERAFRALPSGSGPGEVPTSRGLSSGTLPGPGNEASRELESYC
# Experimental: (§1) HEK293 (CRL-1573, American Type Culture Collection) and β-arrestin 1/2 knockout cells, generated from HEK293A[48], were used for cAMP measurement, homologues competition binding and β-arrestin 2 recruitment. […] Both cell lines were cultured at 5% CO2 at 37 °C in Roswell Park Memorial Institute GlutaMAX-I supplemented with 10% fetal bovine serum, 180 units ml^−1 penicillin, and 45 g ml^−1 streptomycin. For the cAMP and binding experiments, cells were transfected with the calcium phosphate precipitation method[49].
# (§2) cAMP production was measured with the DiscoverX Hithunter cAMP assay according to the manufacturer’s protocol (DiscoverX). […] On the day of the assay, the cells were washed twice with HEPES-buffered saline (HBS) and incubated with HBS and 1 mM 3-isobutyl-1-methylxanthine for 30 min at 37 °C. […] After the incubation, the assay medium was removed from the plate and the cells were washed with 30 µl PBS and treated with 40 µl enzyme donor–lysis buffer–chemiluminescent reagents and 10 µl cAMP antibodies for 60 min before 40 µl enzyme acceptor solution added. After a 3-h incubation on a shaking table in the dark, the cAMP accumulation was measured based on luminescence with a Perkin Elmer EnVision 2104 Multilabel Microplate Reader. […]
# [2] = test system: GIPR variants (groups); assay: β-arrestin 2 recruitment (BRET); conditions: for In vitro groups (β-arrestin): arr part of the in vitro group; for Beta, Barr: in vitro β-arrestin recruitment per GIPR variant;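 as to all read-outs here: BRET readout of β-arrestin 2 recruitment in transiently transfected HEK293 cells expressing WT GIPR or a GIPR variant plus GPCR kinase 2, Rluc8 donor and citrine acceptor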
# Experimental: Both cell lines were cultured at 5% CO2 at 37 °C in Roswell Park Memorial Institute GlutaMAX-I supplemented with 10% fetal bovine serum, 180 units ml^−1 penicillin, and 45 g ml^−1 streptomycin. […] The polyethyleneimine (PEI) transfection method was used for the β-arrestin 2 recruitment assays[50], endosomal signalling and basal receptor localization assays, while the lipofectamine transfection method was used for the internalization assay.
# Measurement of β-arrestin 2 recruitment was performed with a BRET assay. Two days before the assay, the HEK293 cells were transiently transfected with either WT GIPR or the GIPR variants together with the donor Rluc8-Arrestin-3-Sp1, the acceptor mem-linker-citrine-SH3 and the GPCR kinase 2 to facilitate β-arrestin 2 recruitment. On assay day, the cells were washed with PBS and resuspended in PBS supplemented with 5 mmol l^−1 glucose. Subsequently, 85 µl of the cell suspension was transferred to a white 96-well plate and 10 µl of 50 µM coelenterazine-h was added.
# [3] = test system: GIPR variants (groups); assay: cAMP accumulation; assay type: cell-based, human; conditions: for In vitro groups (cAMP): cAMP part of the in vitro group; for percentage_camp: cAMP production compared with WT; for Beta, cAMP: in vitro cAMP production per GIPR variant
# [4] = biological target: T2, GIPR H166Y (Homo sapiens, UniProt P48546, H166Y); assay: cAMP accumulation; assay type: cell-based
# T2 construct: host or cells: HEK293
# T2 sequence (P48546 22-466 H166Y): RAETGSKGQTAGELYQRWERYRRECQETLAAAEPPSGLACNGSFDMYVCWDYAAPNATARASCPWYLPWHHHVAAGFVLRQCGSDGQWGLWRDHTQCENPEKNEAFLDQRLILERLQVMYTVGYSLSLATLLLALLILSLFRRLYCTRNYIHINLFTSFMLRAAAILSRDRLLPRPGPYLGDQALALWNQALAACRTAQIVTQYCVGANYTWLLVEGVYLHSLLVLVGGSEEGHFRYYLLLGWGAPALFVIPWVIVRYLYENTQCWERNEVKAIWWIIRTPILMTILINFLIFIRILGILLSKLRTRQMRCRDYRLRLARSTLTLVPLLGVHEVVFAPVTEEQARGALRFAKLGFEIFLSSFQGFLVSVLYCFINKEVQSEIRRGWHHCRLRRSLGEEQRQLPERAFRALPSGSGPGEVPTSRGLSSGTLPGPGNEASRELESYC
# Experimental: as §1, §2
# [5] = biological target: T3, GIPR T168A (Homo sapiens, UniProt P48546, T168A); assay: cAMP accumulation; assay type: cell-based
# T3 construct: host or cells: HEK293
# T3 sequence (P48546 22-466 T168A): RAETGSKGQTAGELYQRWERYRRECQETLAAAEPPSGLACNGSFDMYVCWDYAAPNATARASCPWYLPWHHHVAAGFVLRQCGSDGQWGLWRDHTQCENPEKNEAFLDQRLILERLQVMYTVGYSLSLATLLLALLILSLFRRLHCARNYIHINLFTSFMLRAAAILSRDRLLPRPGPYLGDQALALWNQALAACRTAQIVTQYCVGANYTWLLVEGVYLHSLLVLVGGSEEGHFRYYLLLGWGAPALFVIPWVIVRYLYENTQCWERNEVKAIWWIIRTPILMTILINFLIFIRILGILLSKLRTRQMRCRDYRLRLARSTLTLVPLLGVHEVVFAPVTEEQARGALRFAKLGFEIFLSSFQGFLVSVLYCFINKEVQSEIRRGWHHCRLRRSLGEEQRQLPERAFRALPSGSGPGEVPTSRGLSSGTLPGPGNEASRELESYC
# Experimental: as §1
# cAMP production was measured with the DiscoverX Hithunter cAMP assay according to the manufacturer’s protocol (DiscoverX). […] On the day of the assay, the cells were washed twice with HEPES-buffered saline (HBS) and incubated with HBS and 1 mM 3-isobutyl-1-methylxanthine for 30 min at 37 °C. […] After the incubation, the assay medium was removed from the plate and the cells were washed with 30 µl PBS and treated with 40 µl enzyme donor–lysis buffer–chemiluminescent reagents and 10 µl cAMP antibodies for 60 min before 40 µl enzyme acceptor solution added. After a 3-h incubation on a shaking table in the dark, the cAMP accumulation was measured based on luminescence with a Perkin Elmer EnVision 2104 Multilabel Microplate Reader.
# [6] = biological target: T4, GIPR R164W (Homo sapiens, UniProt P48546, R164W); assay: cAMP accumulation; assay type: cell-based
# T4 construct: host or cells: HEK293
# T4 sequence (P48546 22-466 R164W): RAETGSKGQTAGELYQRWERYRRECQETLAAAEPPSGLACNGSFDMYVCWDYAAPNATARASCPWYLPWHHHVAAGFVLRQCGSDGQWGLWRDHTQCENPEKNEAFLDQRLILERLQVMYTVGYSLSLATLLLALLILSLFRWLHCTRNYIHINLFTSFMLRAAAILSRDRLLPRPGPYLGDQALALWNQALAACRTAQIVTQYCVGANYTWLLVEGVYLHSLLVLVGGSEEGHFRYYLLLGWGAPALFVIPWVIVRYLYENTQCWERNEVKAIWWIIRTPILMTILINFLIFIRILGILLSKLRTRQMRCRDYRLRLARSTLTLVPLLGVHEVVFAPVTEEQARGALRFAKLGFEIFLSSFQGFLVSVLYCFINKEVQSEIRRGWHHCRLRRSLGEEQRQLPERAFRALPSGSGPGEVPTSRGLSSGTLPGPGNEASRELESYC
# Experimental: as §1, §2
# [7] = biological target: T5, GIPR R164Q (Homo sapiens, UniProt P48546, R164Q); assay: cAMP accumulation; assay type: cell-based
# T5 construct: host or cells: HEK293
# T5 sequence (P48546 22-466 R164Q): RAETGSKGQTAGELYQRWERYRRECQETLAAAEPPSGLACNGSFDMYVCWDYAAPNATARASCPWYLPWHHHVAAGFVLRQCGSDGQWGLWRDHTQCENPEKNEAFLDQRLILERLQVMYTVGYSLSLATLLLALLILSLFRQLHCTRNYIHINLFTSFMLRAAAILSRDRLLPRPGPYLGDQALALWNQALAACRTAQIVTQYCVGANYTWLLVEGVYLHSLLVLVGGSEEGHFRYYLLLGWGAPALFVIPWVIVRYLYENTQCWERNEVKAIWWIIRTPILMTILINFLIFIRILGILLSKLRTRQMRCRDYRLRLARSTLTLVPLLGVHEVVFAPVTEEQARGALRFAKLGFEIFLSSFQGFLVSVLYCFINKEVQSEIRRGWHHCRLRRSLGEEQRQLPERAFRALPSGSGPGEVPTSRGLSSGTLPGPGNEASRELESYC
# Experimental: as §1, §2
Molecule,Efficacy at 100pmol (cAMP) [1],Efficacy at 100pmol (cAMP) [4],Efficacy at 100pmol (cAMP) [5],Efficacy at 100pmol (cAMP) [6],Efficacy at 100pmol (cAMP) [7],In vitro groups (β-arrestin) [2],"Beta, Barr [2]",In vitro groups (cAMP) [3],percentage_camp [3],"Beta, cAMP [3]"
A150T (protein) RAETGSKGQTAGELYQRWERYRRECQETLAAAEPPSGLACNGSFDMYVCWDYAAPNATARASCPWYLPWHHHVAAGFVLRQCGSDGQWGLWRDHTQCENPEKNEAFLDQRLILERLQVMYTVGYSLSLTTLLLALLILSLFRRLHCTRNYIHINLFTSFMLRAAAILSRDRLLPRPGPYLGDQALALWNQALAACRTAQIVTQYCVGANYTWLLVEGVYLHSLLVLVGGSEEGHFRYYLLLGWGAPALFVIPWVIVRYLYENTQCWERNEVKAIWWIIRTPILMTILINFLIFIRILGILLSKLRTRQMRCRDYRLRLARSTLTLVPLLGVHEVVFAPVTEEQARGALRFAKLGFEIFLSSFQGFLVSVLYCFINKEVQSEIRRGWHHCRLRRSLGEEQRQLPERAFRALPSGSGPGEVPTSRGLSSGTLPGPGNEASRELESYC,0.1631,–,–,–,–,WT-like_arr,0.8173,LoF_camp,<50% cAMP,0.1631
R164Q (protein) RAETGSKGQTAGELYQRWERYRRECQETLAAAEPPSGLACNGSFDMYVCWDYAAPNATARASCPWYLPWHHHVAAGFVLRQCGSDGQWGLWRDHTQCENPEKNEAFLDQRLILERLQVMYTVGYSLSLATLLLALLILSLFRQLHCTRNYIHINLFTSFMLRAAAILSRDRLLPRPGPYLGDQALALWNQALAACRTAQIVTQYCVGANYTWLLVEGVYLHSLLVLVGGSEEGHFRYYLLLGWGAPALFVIPWVIVRYLYENTQCWERNEVKAIWWIIRTPILMTILINFLIFIRILGILLSKLRTRQMRCRDYRLRLARSTLTLVPLLGVHEVVFAPVTEEQARGALRFAKLGFEIFLSSFQGFLVSVLYCFINKEVQSEIRRGWHHCRLRRSLGEEQRQLPERAFRALPSGSGPGEVPTSRGLSSGTLPGPGNEASRELESYC,–,–,–,–,1.15,LoF_arr,0.3053,WT-like_camp,>50% cAMP,1.15

# Second part, led by results:
Efficacy at 100pmol (cAMP) [1],Efficacy at 100pmol (cAMP) [4],Efficacy at 100pmol (cAMP) [5],Efficacy at 100pmol (cAMP) [6],Efficacy at 100pmol (cAMP) [7],Molecule,In vitro groups (β-arrestin) [2],"Beta, Barr [2]",In vitro groups (cAMP) [3],percentage_camp [3],"Beta, cAMP [3]"
–,0.9566,–,–,–,H166Y (protein) RAETGSKGQTAGELYQRWERYRRECQETLAAAEPPSGLACNGSFDMYVCWDYAAPNATARASCPWYLPWHHHVAAGFVLRQCGSDGQWGLWRDHTQCENPEKNEAFLDQRLILERLQVMYTVGYSLSLATLLLALLILSLFRRLYCTRNYIHINLFTSFMLRAAAILSRDRLLPRPGPYLGDQALALWNQALAACRTAQIVTQYCVGANYTWLLVEGVYLHSLLVLVGGSEEGHFRYYLLLGWGAPALFVIPWVIVRYLYENTQCWERNEVKAIWWIIRTPILMTILINFLIFIRILGILLSKLRTRQMRCRDYRLRLARSTLTLVPLLGVHEVVFAPVTEEQARGALRFAKLGFEIFLSSFQGFLVSVLYCFINKEVQSEIRRGWHHCRLRRSLGEEQRQLPERAFRALPSGSGPGEVPTSRGLSSGTLPGPGNEASRELESYC,LoF_arr,0.3616,WT-like_camp,>50% cAMP,0.9566
–,–,0.2182,–,–,T168A (protein) RAETGSKGQTAGELYQRWERYRRECQETLAAAEPPSGLACNGSFDMYVCWDYAAPNATARASCPWYLPWHHHVAAGFVLRQCGSDGQWGLWRDHTQCENPEKNEAFLDQRLILERLQVMYTVGYSLSLATLLLALLILSLFRRLHCARNYIHINLFTSFMLRAAAILSRDRLLPRPGPYLGDQALALWNQALAACRTAQIVTQYCVGANYTWLLVEGVYLHSLLVLVGGSEEGHFRYYLLLGWGAPALFVIPWVIVRYLYENTQCWERNEVKAIWWIIRTPILMTILINFLIFIRILGILLSKLRTRQMRCRDYRLRLARSTLTLVPLLGVHEVVFAPVTEEQARGALRFAKLGFEIFLSSFQGFLVSVLYCFINKEVQSEIRRGWHHCRLRRSLGEEQRQLPERAFRALPSGSGPGEVPTSRGLSSGTLPGPGNEASRELESYC,LoF_arr,0.2206,LoF_camp,<50% cAMP,0.2182
–,–,–,0.003189,–,R164W (protein) RAETGSKGQTAGELYQRWERYRRECQETLAAAEPPSGLACNGSFDMYVCWDYAAPNATARASCPWYLPWHHHVAAGFVLRQCGSDGQWGLWRDHTQCENPEKNEAFLDQRLILERLQVMYTVGYSLSLATLLLALLILSLFRWLHCTRNYIHINLFTSFMLRAAAILSRDRLLPRPGPYLGDQALALWNQALAACRTAQIVTQYCVGANYTWLLVEGVYLHSLLVLVGGSEEGHFRYYLLLGWGAPALFVIPWVIVRYLYENTQCWERNEVKAIWWIIRTPILMTILINFLIFIRILGILLSKLRTRQMRCRDYRLRLARSTLTLVPLLGVHEVVFAPVTEEQARGALRFAKLGFEIFLSSFQGFLVSVLYCFINKEVQSEIRRGWHHCRLRRSLGEEQRQLPERAFRALPSGSGPGEVPTSRGLSSGTLPGPGNEASRELESYC,LoF_arr,0,LoF_camp,<50% cAMP,0.003189
